The target of experiment [1] is T1, human FcRH5 protein fragment (soluble) (human, UniProt Q96RD9 16-851).
T1 construct: whole entry named; also called soluble human FcRH5; Human FcRH5 (BIACORE analyte)
T1 sequence: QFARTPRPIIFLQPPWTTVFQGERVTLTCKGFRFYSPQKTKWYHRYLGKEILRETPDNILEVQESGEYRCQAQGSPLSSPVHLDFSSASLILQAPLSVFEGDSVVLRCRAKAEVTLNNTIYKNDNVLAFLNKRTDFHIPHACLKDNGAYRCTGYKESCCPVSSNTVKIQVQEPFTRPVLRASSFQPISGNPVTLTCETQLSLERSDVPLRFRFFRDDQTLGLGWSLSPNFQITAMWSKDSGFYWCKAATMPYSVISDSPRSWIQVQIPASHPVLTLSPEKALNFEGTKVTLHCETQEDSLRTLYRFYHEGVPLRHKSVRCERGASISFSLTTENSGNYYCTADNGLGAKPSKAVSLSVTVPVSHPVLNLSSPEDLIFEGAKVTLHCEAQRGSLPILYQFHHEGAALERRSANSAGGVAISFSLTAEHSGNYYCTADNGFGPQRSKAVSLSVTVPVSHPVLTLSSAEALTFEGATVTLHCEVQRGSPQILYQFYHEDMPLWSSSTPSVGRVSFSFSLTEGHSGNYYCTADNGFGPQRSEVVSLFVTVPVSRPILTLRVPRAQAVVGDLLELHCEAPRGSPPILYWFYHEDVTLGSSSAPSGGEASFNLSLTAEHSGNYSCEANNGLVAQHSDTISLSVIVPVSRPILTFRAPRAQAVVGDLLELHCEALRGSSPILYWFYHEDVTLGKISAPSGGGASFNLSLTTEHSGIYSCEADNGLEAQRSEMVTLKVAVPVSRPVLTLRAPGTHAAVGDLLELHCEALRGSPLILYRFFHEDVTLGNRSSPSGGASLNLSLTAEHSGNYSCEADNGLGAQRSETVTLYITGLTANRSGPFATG
The experiment in a line: BIACORE, hIgG capture, 1:1 model, monovalent. Here is the method:
Briefly, a human IgG capture surface was generated on a Series S CM5 chip using amine coupling and the human IgG capture kit (GE Life Sciences, Piscataway, NJ). Test antibodies were then captured on flow cells 2, 3, or 4, with flow cell 1 used as a reference. An FcRH5 protein fragment was used as the analyte, with a flow rate of […]. Between injections the capture surface was regenerated by a 30-second injection of 3M magnesium chloride or 10 mM glycine, pH 1.5. Interactions were assessed at 25° C. in 10 mM HEPES pH7.4, 150 mM NaCl, and 0.05% Tween 20 (HBSP). Reference data from the reference flow cell and from injection of buffer alone were subtracted prior to kinetic analysis. Kinetic information was calculated by fitting data to a 1:1 binding model. Reference subtraction and data fitting were performed using BIAevaluation software (GE Life Sciences, Piscataway, NJ).
Kinetic characterization experiments were carried out (see Table 8). In these experiments, binding of soluble FcRH5 protein fragment to purified antibodies in human TDB antibody format was analyzed at six different non-zero concentrations (a 1:3 dilution series, one concentration injected twice as a replicate). Flow rate was set at 40 μl/min and association and dissociation monitored for 600 s.

Experiment [2] deals with T2, human FcRH3 (BIACORE analyte) (human, UniProt Q96P31 18-573, limits assumed).
T2 construct: also called huFcRH3
T2 sequence (looked up): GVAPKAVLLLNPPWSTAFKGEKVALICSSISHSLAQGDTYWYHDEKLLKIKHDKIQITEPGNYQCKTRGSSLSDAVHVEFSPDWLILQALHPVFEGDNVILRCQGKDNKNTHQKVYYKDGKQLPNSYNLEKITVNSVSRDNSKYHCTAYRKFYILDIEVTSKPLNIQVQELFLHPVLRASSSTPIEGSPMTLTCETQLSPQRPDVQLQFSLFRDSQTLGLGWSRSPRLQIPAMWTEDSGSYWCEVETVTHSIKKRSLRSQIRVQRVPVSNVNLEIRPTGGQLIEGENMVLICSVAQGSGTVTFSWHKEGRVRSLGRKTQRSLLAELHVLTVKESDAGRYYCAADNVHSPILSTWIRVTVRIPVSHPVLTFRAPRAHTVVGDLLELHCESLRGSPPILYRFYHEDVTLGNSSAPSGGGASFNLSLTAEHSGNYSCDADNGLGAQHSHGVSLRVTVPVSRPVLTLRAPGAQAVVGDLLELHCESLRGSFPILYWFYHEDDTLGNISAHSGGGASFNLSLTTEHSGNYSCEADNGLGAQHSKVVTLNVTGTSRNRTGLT
Kind of experiment: SPR (BIACORE), TDB captured as ligand, FcRH3 as analyte, 25 °C, 1:1 binding model.

This note sets out measurements from US20240383984A1 (Genentech, published 2024).

B1: 1G7.v85/38E4.v1 TDB (bispecific antibody, V domains shown)
VH 1: EVQLVESGPGLVKPSETLSLTCTVSGFSLTRFGVHWVRQPPGKGLEWLGVIWRGGSTDYNAAFVSRLTISKDNSKNQVSLKLSSVTAADTAVYYCSNHYYGSSDYALDNWGQGTLVTVSS
VL 1: DIQMTQSPSSLSASVGDRVTITCKASQDVRNLVVWFQQKPGKAPKLLIYSGSYRYSGVPSRFSGSGSGTDFTLTISSLQPEDFATYYCQQHYSPPYTFGQGTKVEIK
VH 2: EVQLVQSGAEVKKPGASVKVSCKASGFTFTSYYIHWVRQAPGQGLEWIGWIYPENDNTKYNEKFKDRVTITADTSTSTAYLELSSLRSEDTAVYYCARDGYSRYYFDYWGQGTLVTVSS
VL 2: DIVMTQSPDSLAVSLGERATINCKSSQSLLNSRTRKNYLAWYQQKPGQSPKLLIYWTSTRKSGVPDRFSGSGSGTDFTLTISSLQAEDVAVYYCKQSFILRTFGQGTKVEIK
notes: knob-into-hole TDB; also called 1G7.v85 TDB; 1G7.v85 (TDB format)
In experiment [1], B1 displayed a Kd of 2.35 nM. In addition, in experiment [2], the Kd was determined as 92.4 nM, the koff turned out to be 0.00741 s⁻¹ and the kon was determined as 80200 M⁻¹ s⁻¹.
